Test results taken from patent publication US20080234193A1 (published 2008).
Where “and” joins values, the source holds several entries; their conditions need not be identical. Equal values may be shown once. One block for each molecule: values may come before it.

Key:
[1] = biological target: PEG-rFVIII Lys 20K br short (UniProt P00451)
[2] = biological target: PEG-rFVIII Lys 40K br short (UniProt P00451)
[3] = biological target: native rFVIII MOQ HEPES 01-E (Advate rAHF-PFM bulk drug substance) (UniProt P00451)
[4] = biological target: PEG-rFVIII Lys 20K br long (UniProt P00451)
[5] = biological target: PEG-rFVIII Lys 60K br short (UniProt P00451)
[6] = biological target: PEG-rFVIII Lys 40K br long (UniProt P00451)
[7] = biological target: PEG-rFVIII Lys 60K br long (UniProt P00451)
[8] = biological target: activated factor IX (FIXa); assay: cell-based or functional assay
[9] = biological target: native rVWF 133P1 (human) (UniProt P04275); assay: SPR (Biacore 3000): native rVWF 133P1 immobilized on CM5 chip, FVIII sample in flow, 1:1 Langmuir model
[10] = biological target: native rFVIII MOQ HEPES 01-E (Advate rAHF-PFM bulk drug substance) (UniProt P00451); assay: ELISA chromogenic assay (ECA); mean of 133P1-1 to 133P1-3
[11] = biological target: native rFVIII MOQ HEPES 01-E (Advate rAHF-PFM bulk drug substance) (UniProt P00451); assay: ECA after in vitro incubation in Hepes buffer pH ~7.5 at ambient temperature, day 0
[12] = biological target: native rFVIII MOQ HEPES 01-E (Advate rAHF-PFM bulk drug substance) (UniProt P00451); assay: ECA, value related to the rVWF protein
[13] = biological target: native rFVIII MOQ HEPES 01-E (Advate rAHF-PFM bulk drug substance) (UniProt P00451); assay: ELISA chromogenic assay (ECA): VWF-rFVIII complex captured on anti-VWF antibody, bound FVIII by chromogenic assay; percent of VWF:Ag
[14] = biological target: native rFVIII MOQ HEPES 01-E (Advate rAHF-PFM bulk drug substance) (UniProt P00451); assay: SPR (Biacore 3000): rVWF sample immobilized on CM5 chip, rFVIII in flow, 1:1 Langmuir model
[15] = biological target: native rFVIII MOQ HEPES 01-E (Advate rAHF-PFM bulk drug substance) (UniProt P00451); assay: SPR competition (Biacore): VWF-rFVIII complex (5 IU/ml rFVIII) in flow over immobilized unmodified rVWF (competitor)
[16] = biological target: native rFVIII MOQ HEPES 01-E (Advate rAHF-PFM bulk drug substance) (UniProt P00451); assay: ECA after in vitro incubation in Hepes buffer pH ~7.5 at ambient temperature, day 8
[17] = biological target: native rFVIII MOQ HEPES 01-E (Advate rAHF-PFM bulk drug substance) (UniProt P00451); assay: ELISA chromogenic assay (ECA): VWF-rFVIII complex captured on anti-VWF antibody, bound FVIII by chromogenic assay
[18] = biological target: native rFVIII MOQ HEPES 01-E (Advate rAHF-PFM bulk drug substance) (UniProt P00451); assay: ECA after in vitro incubation in Hepes buffer pH ~7.5 at ambient temperature, day 5
[19] = biological target: native rFVIII MOQ HEPES 01-E (Advate rAHF-PFM bulk drug substance) (UniProt P00451); assay: ELISA chromogenic assay (ECA): VWF-rFVIII complex captured on anti-VWF antibody, bound FVIII by chromogenic assay; remark: listed apart in the source
[20] = biological target: native rFVIII MOQ HEPES 01-E (Advate rAHF-PFM bulk drug substance) (UniProt P00451); assay: SPR (Biacore 3000): rVWF sample immobilized on CM5 chip, rFVIII in flow, 1:1 Langmuir model; remark: listed apart in the source
[21] = biological target: native rFVIII MOQ HEPES 01-E (Advate rAHF-PFM bulk drug substance) (UniProt P00451); assay: SPR (Biacore 3000): rVWF sample immobilized on CM5 chip, rFVIII in flow, 1:1 Langmuir model; mean of 133P1-1 and 133P1-2
[22] = biological target: native rFVIII MOQ HEPES 01-E (Advate rAHF-PFM bulk drug substance) (UniProt P00451); assay: ECA after in vitro incubation in Hepes buffer pH ~7.5 at ambient temperature, day 2
[23] = biological target: native rFVIII MOQ HEPES 01-E (Advate rAHF-PFM bulk drug substance) (UniProt P00451); assay: ECA, value as percent of VWF:Ag
[24] = biological target: FVIII control (mock preparation, not PEGylated) (UniProt P00451)
[25] = biological target: PEG-rVWF Lys 20K br long low, P04275
[26] = biological target: PEG-rVWF Lys 40K br long low, P04275
[27] = biological target: native rVWF 133P1, P04275
[28] = biological target: PEG-rVWF Lys 40K br short low, P04275
[29] = biological target: PEG-rVWF Lys 20K br short low, P04275

Chain of PEG-rFVIII Lys 60K br short (P00451 whole entry, looked up): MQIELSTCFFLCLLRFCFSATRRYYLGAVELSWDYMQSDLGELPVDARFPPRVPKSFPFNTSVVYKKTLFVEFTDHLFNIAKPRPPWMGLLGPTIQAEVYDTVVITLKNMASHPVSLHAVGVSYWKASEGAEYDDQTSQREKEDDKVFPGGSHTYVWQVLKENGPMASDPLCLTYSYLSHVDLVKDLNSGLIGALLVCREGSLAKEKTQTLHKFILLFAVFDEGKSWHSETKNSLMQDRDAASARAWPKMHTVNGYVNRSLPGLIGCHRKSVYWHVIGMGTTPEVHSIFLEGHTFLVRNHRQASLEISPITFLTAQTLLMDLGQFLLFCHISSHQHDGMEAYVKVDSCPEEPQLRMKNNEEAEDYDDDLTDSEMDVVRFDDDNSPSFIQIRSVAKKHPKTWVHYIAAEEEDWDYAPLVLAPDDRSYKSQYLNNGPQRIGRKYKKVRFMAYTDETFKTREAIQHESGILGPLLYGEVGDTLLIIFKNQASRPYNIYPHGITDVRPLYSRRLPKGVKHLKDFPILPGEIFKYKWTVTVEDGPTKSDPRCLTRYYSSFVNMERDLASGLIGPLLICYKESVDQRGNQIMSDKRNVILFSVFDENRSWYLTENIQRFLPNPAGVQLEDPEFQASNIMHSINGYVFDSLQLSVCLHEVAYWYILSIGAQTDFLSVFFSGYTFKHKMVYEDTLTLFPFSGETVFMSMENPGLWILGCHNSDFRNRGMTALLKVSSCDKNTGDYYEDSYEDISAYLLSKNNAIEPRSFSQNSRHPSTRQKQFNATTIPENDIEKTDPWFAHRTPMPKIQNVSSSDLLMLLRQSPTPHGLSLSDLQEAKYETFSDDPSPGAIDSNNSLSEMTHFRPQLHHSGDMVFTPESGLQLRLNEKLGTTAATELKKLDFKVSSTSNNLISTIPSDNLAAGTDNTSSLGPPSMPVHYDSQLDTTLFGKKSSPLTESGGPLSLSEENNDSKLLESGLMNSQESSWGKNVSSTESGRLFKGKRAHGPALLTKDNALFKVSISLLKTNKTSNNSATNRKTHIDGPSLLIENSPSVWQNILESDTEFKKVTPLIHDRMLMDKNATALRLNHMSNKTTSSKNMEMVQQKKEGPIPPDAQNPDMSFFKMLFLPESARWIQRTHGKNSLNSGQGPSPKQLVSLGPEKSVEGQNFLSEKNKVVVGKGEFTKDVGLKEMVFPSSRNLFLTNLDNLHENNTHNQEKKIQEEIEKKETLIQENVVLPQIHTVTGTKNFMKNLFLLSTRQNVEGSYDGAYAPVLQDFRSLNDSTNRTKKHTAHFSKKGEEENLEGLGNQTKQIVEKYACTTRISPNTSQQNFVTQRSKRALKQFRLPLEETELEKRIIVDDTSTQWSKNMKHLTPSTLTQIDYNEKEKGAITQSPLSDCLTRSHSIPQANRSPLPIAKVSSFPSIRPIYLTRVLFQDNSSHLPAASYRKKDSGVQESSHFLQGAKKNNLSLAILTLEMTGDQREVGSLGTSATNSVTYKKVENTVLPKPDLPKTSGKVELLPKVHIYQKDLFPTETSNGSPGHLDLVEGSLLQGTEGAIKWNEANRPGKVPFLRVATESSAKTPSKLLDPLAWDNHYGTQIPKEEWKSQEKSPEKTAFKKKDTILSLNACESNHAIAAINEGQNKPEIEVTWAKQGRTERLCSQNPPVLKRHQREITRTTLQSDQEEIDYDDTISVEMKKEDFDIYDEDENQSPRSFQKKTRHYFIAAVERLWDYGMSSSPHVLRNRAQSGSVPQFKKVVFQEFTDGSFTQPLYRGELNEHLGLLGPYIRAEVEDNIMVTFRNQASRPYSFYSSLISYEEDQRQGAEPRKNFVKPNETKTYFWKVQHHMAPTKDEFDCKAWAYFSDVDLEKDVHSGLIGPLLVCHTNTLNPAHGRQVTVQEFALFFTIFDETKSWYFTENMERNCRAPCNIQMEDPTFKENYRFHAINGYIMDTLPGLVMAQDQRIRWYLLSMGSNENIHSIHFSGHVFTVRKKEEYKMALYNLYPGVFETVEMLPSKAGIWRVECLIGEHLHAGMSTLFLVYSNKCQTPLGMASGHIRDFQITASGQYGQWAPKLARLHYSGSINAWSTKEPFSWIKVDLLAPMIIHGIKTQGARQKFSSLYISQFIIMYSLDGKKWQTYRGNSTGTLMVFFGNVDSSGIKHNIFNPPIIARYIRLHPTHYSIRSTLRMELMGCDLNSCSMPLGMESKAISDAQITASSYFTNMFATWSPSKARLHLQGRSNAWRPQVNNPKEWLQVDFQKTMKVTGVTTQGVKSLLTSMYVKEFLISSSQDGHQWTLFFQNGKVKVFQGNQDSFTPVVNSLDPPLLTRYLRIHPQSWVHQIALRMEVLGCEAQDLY
Chain of PEG-rFVIII Lys 40K br long (P00451 whole entry, looked up): as above
Chain of PEG-rFVIII Lys 40K br short (P00451 whole entry, looked up): as above
Chain of PEG-rFVIII Lys 20K br short (P00451 whole entry, looked up): as above
Chain of PEG-rFVIII Lys 20K br long (P00451 whole entry, looked up): as above
Chain of PEG-rFVIII Lys 60K br long (P00451 whole entry, looked up): as above
Chain of FVIII control (mock preparation, not PEGylated) (P00451 whole entry, looked up): as above
Chain of native rFVIII MOQ HEPES 01-E (Advate rAHF-PFM bulk drug substance) (P00451 whole entry, looked up): as above

Molecule: activated protein C (APC)
- Relative k' of APC-mediated inactivation (non-activated FVIII) relative to native rFVIII [1]: 0.46
- Relative k' of APC-mediated inactivation of thrombin-activated FVIII relative to native rFVIIIa [1]: 0.5
- Relative k' of APC-mediated inactivation (non-activated FVIII) relative to native rFVIII [2]: 0.44
- Relative k' of APC-mediated inactivation of thrombin-activated FVIII relative to native rFVIIIa [2]: 0.55
- first order rate of inactivation k', non-activated rFVIII, 0.05 U/ml APC [3]: a first order rate inactivation was observed, with a k' of 0.220*min^-1
- Relative k' of APC-mediated inactivation (non-activated FVIII) relative to native rFVIII [4]: 0.56
- Relative k' of APC-mediated inactivation of thrombin-activated FVIII relative to native rFVIIIa [4]: 0.5
- Relative k' of APC-mediated inactivation (non-activated FVIII) relative to native rFVIII [5]: 0.52
- Relative k' of APC-mediated inactivation of thrombin-activated FVIII relative to native rFVIIIa [5]: 0.54
- Relative k' of APC-mediated inactivation (non-activated FVIII) relative to native rFVIII [6]: 0.35
- Relative k' of APC-mediated inactivation of thrombin-activated FVIII relative to native rFVIIIa [6]: 0.54
- Relative k' of APC-mediated inactivation (non-activated FVIII) relative to native rFVIII [7]: 0.38
- Relative k' of APC-mediated inactivation of thrombin-activated FVIII relative to native rFVIIIa [7]: 0.64

Molecule: thrombin
- Relative k' (first order inactivation rate relative to native rFVIII), 0.5 nM thrombin, FIXa-cofactor assay [1]: 0.35
- Relative k' (first order inactivation rate relative to native rFVIII), 0.5 nM thrombin, FIXa-cofactor assay [2]: 0.48
- Relative k' (first order inactivation rate relative to native rFVIII), 0.5 nM thrombin, FIXa-cofactor assay [4]: 0.39
- Relative k' (first order inactivation rate relative to native rFVIII), 0.5 nM thrombin, FIXa-cofactor assay [5]: 0.46
- Relative k' (first order inactivation rate relative to native rFVIII), 0.5 nM thrombin, FIXa-cofactor assay [6]: 0.44
- Relative k' (first order inactivation rate relative to native rFVIII), 0.5 nM thrombin, FIXa-cofactor assay [7]: 0.51
- Relative k' (first order inactivation rate relative to native rFVIII), 0.5 nM thrombin, FIXa-cofactor assay [24]: 0.72

B1: ADAMTS13 (VWF cleaving protease) (protein)
chain: AAGGILHLELLVAVGPDVFQAHQEDTERYVLTNLNIGAELLRDPSLGAQFRVHLVKMVILTEPEGAPNITANLTSSLLSVCGWSQTINPEDDTDPGHADLVLYITRFDLELPDGNRQVRGVTQLGGACSPTWSCLITEDTGFDLGVTIAHEIGHSFGLEHDGAPGSGCGPSGHVMASDGAAPRAGLAWSPCSRRQLLSLLSAGRARCVWDPPRPQPGSAGHPPDAQPGLYYSANEQCRVAFGPKAVACTFAREHLDMCQALSCHTDPLDQSSCSRLLVPLLDGTECGVEKWCSKGRCRSLVELTPIAAVHGRWSSWGPRSPCSRSCGGGVVTRRRQCNNPRPAFGGRACVGADLQAEMCNTQACEKTQLEFMSQQCARTDGQPLRSSPGGASFYHWGAAVPHSQGDALCRHMCRAIGESFIMKRGDSFLDGTRCMPSGPREDGTLSLCVSGSCRTFGCDGRMDSQQVWDRCQVCGGDNSTCSPRKGSFTAGRAREYVTFLTVTPNLTSVYIANHRPLFTHLAVRIGGRYVVAGKMSISPNTTYPSLLEDGRVEYRVALTEDRLPRLEEIRIWGPLQEDADIQVYRRYGEEYGNLTRPDITFTYFQPKPRQAWVWAAVRGPCSVSCGAGLRWVNYSCLDQARKELVETVQCQGSQQPPAWPEACVLEPCPPYWAVGDFGPCSASCGGGLRERPVRCVEAQGSLLKTLPPARCRAGAQQPAVALETCNPQPCPARWEVSEPSSCTSAGGAGLALENETCVPGADGLEAPVTEGPGSVDEKLPAPEPCVGMSCPPGWGHLDATSAGEKAPSPWGSIRTGAQAAHVWTPAAGSCSVSCGRGLMELRFLCMDSALRVPVQEELCGLASKPGSRREVCQAVPCPARWQYKLAACSVSCGRGVVRRILYCARAHGEDDGEEILLDTQCQGLPRPEPQEACSLEPCPPRWKVMSLGPCSASCGLGTARRSVACVQLDQGQDVEVDEAACAALVRPEASVPCLIADCTYRWHVGTWMECSVSCGDGIQRRRDTCLGPQAQAPVPADFCQHLPKPVTVRGCWAGPCVGQGTPSLVPHEEAAAPGRTTATPAGASLEWSQARGLLFSPAPQPRRLLPGPQENSVQSSACGRQHLEPTGTIDMRGPGQADCAVAIGRPLGEVVTLRVLESSLNCSAGDMLLLWGRLTWRKMCRKLLDMTFSSKTNTLVVRQRCGRPGGGVLLRYGSQLAPETFYRECDMQLFGPWGEIVSPSLSPATSNAGGCRLFINVAPHARIAIHALATNMGAGTEGANASYILIRDTHSLRTTAFHGQQVLYWESESSQAEMEFSEGFLKAQASLRGQYWTLQSWVPEMQDPQSWKGKEGT
- loss of VWF:CB activity after 4 h incubation with ADAMTS13 under denaturing conditions [25]: The PEGylated conjugates showed a slightly higher susceptibility to ADAMTS13 than their parent native rVWF.
- loss of VWF:CB activity after 4 h incubation with ADAMTS13 under denaturing conditions [26]: The PEGylated conjugates showed a slightly higher susceptibility to ADAMTS13 than their parent native rVWF.
- disappearance of higher molecular weight multimers after incubation with ADAMTS13 [27]: All preparations showed similar sensitivity to ADAMTS13.
- loss of VWF:CB activity after 4 h incubation with ADAMTS13 under denaturing conditions [28]: The PEGylated conjugates showed a slightly higher susceptibility to ADAMTS13 than their parent native rVWF.
- loss of VWF:CB activity after 4 h incubation with ADAMTS13 under denaturing conditions [29]: The PEGylated conjugates showed a slightly higher susceptibility to ADAMTS13 than their parent native rVWF.

More lines, now with the values ahead:

- lag phase (min), FIXa-cofactor activity after thrombin activation [8]: 1.15 min
- lag phase (min), FIXa-cofactor activity without thrombin activation [8]: 2.4 min
- maximum FXa (nM), FIXa-cofactor activity after thrombin activation [8]: 25.1 nM
- maximum FXa (nM), FIXa-cofactor activity without thrombin activation [8]: 30.1 nM
- maximum rate (nM FXa/min), FIXa-cofactor activity after thrombin activation [8]: 4.24 nM FXa/min
- maximum rate (nM FXa/min), FIXa-cofactor activity without thrombin activation [8]: 6.7 nM FXa/min
- t1/2 of maximum (min), FIXa-cofactor activity after thrombin activation [8]: 4.24 min
- t1/2 of maximum (min), FIXa-cofactor activity without thrombin activation [8]: 4.6 min
- Kd [9]: 1500 pM
Molecule: native rFVIII MOQ HEPES 01-E (Advate rAHF-PFM bulk drug substance) (from UniProt P00451 20-2351)

- VWF:FVIIIB (U/ml) [10]: 41.2 U/ml
- VWF:FVIIIB specific activity (U/mg protein) [11]: 81 U/mg protein
- VWF:FVIIIB (U/mg) [12]: 134 U/mg
- VWF:FVIIIB capacity (%) [13]: 84%
- Kd [14]: 549 pM
- VWF to FVIII ratio to keep all FVIII in a complex [15]: 1 µg/IU
- VWF:FVIIIB specific activity (U/mg protein) [16]: 84 U/mg protein
- VWF:FVIIIB (U/ml) [17]: 47.9 U/ml and 37.9 U/ml and 37.8 U/ml
- VWF:FVIIIB specific activity (U/mg protein) [18]: 93 U/mg protein
- VWF:FVIIIB (U/ml) [19]: 46 U/ml
- Kd [20]: 290 pM and 550 pM and 480 pM
- Kd [21]: 390 pM
- VWF:FVIIIB specific activity (U/mg protein) [22]: 66 U/mg protein
Molecule: native rVWF 133P1 (from UniProt P04275 764-2813)

- VWF:FVIIIB (U/mg) [12]: 95 U/mg
- VWF:FVIIIB capacity (%) [23]: 84%
- VWF:FVIIIB (U/ml) [17]: 15.5 U/ml
Molecule: rVWF control (mock preparation, not PEGylated) (from UniProt P04275 764-2813)
